According to patent US5795974:

Assays:
[1] = target: I-Eα chain of the murine MHC (class II) (mouse)
[2] = target: Vβ 8.2 TCR on T hybridoma

Row | Substance | Uptake of 3H-TdR by Mouse Lymphocytes (counts per minute × 10^-3) [1] | IL-2 (U/ml) produced by T hybridomas + APCs (Vβ 3 TCR on T hybridoma) [U/ml] | IL-2 (U/ml) produced by T hybridomas + APCs (Vβ 6 TCR on T hybridoma) [U/ml] | IL-2 (U/ml) produced by T hybridomas + APCs (Vβ 11 TCR on T hybridoma) [U/ml] | IL-2 (U/ml) produced by T hybridomas + APCs (Vβ 1 TCR on T hybridoma) [U/ml] | IL-2 (U/ml) produced by T hybridomas + APCs [2] [U/ml]
1 | MBP-MAM fusion protein | 80.7 |  |  |  |  | 
2 | Native Mycoplasma arthritidis T-cell mitogen (MAM) (ligand) | 108 | 0 | 640 | 0 | 0 | 232
3 | Staphylococcus enterotoxin A (from UniProt P0A0L2) (ligand) |  | 1880 |  | 1180 | 691 | 0
4 | Staphylococcus enterotoxin B (from UniProt P01552) (ligand) |  | 1830 | 0 | 0 | 0 | 608
